Where a chain is given by its changes, count along the chain named. *1 amine or outer side, *2 acyl side, *3 side chain or, on linkers, in order; H or OH if unused. Where no end group is shown, it is not given here. Side-chain parts run from the residue outwards. [ ]: non-standard residue; d: D form. The star is where a group is joined. Decanoyl(10-(4-HOOC-PhO)) = O=C(O)c1ccc(OCCCCCCCCCC(=O)*)cc1; αMePhe(2-F) = C[C@](N)(Cc1ccccc1F)C(=O)O; γGlu = O=C(O)[C@H](CCC(=O)[*:2])N[*:1]; C14 diacid = O=C(O)CCCCCCCCCCCCC(=O)*; αMeY = C[C@](N)(Cc1ccc(O)cc1)C(=O)O; αMeL = CC(C)C[C@](C)(N)C(=O)O; Orn = NCCC[C@H](N)C(=O)O; AEEA = NCCOCCOCC(=O)O; Aib = CC(C)(N)C(=O)O
T1: human GIP receptor (human) (UniProt P48546)
T1 sequence (looked up): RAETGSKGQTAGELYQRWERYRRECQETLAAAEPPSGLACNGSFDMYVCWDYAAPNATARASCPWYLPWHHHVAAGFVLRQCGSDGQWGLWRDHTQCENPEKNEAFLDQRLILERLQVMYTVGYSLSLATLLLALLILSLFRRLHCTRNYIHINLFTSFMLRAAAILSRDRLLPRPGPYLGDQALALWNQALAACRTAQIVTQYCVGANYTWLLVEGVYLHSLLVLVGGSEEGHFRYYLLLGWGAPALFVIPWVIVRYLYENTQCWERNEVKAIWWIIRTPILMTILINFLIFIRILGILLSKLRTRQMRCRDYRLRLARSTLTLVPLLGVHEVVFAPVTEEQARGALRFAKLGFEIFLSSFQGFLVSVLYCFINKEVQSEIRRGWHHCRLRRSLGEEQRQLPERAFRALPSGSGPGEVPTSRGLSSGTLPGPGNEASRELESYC

T2: human GIP receptor (human, UniProt P48546 22-466)
T2 sequence (looked up): T1 sequence (looked up)

B1: Example 330 (peptide)
peptide: Y[Aib]EGT[αMePhe(2-F)]TSDV[Aib]I[αMeL]LD[Orn]IAQ[Aib]K([AEEA-AEEA-γGlu-Decanoyl(10-(4-HOOC-PhO))])FI[dE][αMeY]LIK([AEEA-AEEA-γGlu-Decanoyl(10-(4-HOOC-PhO))])GGPSSGAPPPS-NH2
B2: Example 324 (peptide)
peptide: YXEGTXTSDXXIXLDXKAQXEFIXXLIEGGPSSGAPPPSK
modifications: Y-Aib-EGT-αMeF(2F)-TSD-4Pal-Aib-I-αMeL-LD-Orn-K((2-[2-(2-Amino-ethoxy)-ethoxy]-acetyl)2-(γ-Glu)-CO-(CH2)10-CH3)AQ-Aib-EFI-(D-Glu)-αMeY-LIEGGPSSGAPPPSK((2-[2-(2-Amino-ethoxy)-ethoxy]-acetyl)2-(γ-Glu)-CO-(CH2)10-CH3)-NH2
B3: Example 341 (peptide)
peptide: B2 peptide with K17I, E21K
modifications: Y-Aib-EGT-αMeF(2F)-TSD-4Pal-Aib-I-αMeL-LD-Orn-IAQ-Aib-K((2-[2-(2-Amino-ethoxy)-ethoxy]-acetyl)-(γ-Glu)-CO-(CH2)12-CO2H)FI-(D-Glu)-αMeY-LIEGGPSSGAPPPSK((2-[2-(2-Amino-ethoxy)-ethoxy]-acetyl)-(γ-Glu)-CO-(CH2)12-CO2H)-NH2
B4: Example 329 (peptide)
peptide: Y[Aib]EGT[αMePhe(2-F)]TSDV[Aib]I[αMeL]LD[Orn]IAQ[Aib]K([AEEA-AEEA-γGlu-C14 diacid])FI[dE][αMeY]LIK([AEEA-AEEA-γGlu-C14 diacid])GGPSSGAPPPS-NH2
modifications: N-terminus assumed
SMILES: CC[C@H](C)[C@H](NC(=O)[C@H](CCCN)NC(=O)[C@H](CC(=O)O)NC(=O)[C@H](CC(C)C)NC(=O)[C@](C)(CC(C)C)NC(=O)[C@@H](NC(=O)C(C)(C)NC(=O)[C@@H](NC(=O)[C@H](CC(=O)O)NC(=O)[C@H](CO)NC(=O)[C@@H](NC(=O)[C@](C)(Cc1ccccc1F)NC(=O)[C@@H](NC(=O)CNC(=O)[C@H](CCC(=O)O)NC(=O)C(C)(C)NC(=O)[C@@H](N)Cc1ccc(O)cc1)[C@@H](C)O)[C@@H](C)O)C(C)C)[C@@H](C)CC)C(=O)N[C@@H](C)C(=O)N[C@@H](CCC(N)=O)C(=O)NC(C)(C)C(=O)N[C@@H](CCCCNC(=O)COCCOCCNC(=O)COCCOCCNC(=O)CC[C@H](NC(=O)CCCCCCCCCCCCC(=O)O)C(=O)O)C(=O)N[C@@H](Cc1ccccc1)C(=O)N[C@H](C(=O)N[C@H](CCC(=O)O)C(=O)N[C@@](C)(Cc1ccc(O)cc1)C(=O)N[C@@H](CC(C)C)C(=O)N[C@H](C(=O)N[C@@H](CCCCNC(=O)COCCOCCNC(=O)COCCOCCNC(=O)CC[C@H](NC(=O)CCCCCCCCCCCCC(=O)O)C(=O)O)C(=O)NCC(=O)NCC(=O)N1CCC[C@H]1C(=O)N[C@@H](CO)C(=O)N[C@@H](CO)C(=O)NCC(=O)N[C@@H](C)C(=O)N1CCC[C@H]1C(=O)N1CCC[C@H]1C(=O)N1CCC[C@H]1C(=O)N[C@@H](CO)C(N)=O)[C@@H](C)CC)[C@@H](C)CC
B5: Example 325 (peptide)
peptide: Y[Aib]EGT[αMePhe(2-F)]TSDV[Aib]I[αMeL]LD[Orn]K([AEEA-AEEA-γGlu-C14 diacid])AQ[Aib]EFI[dE][αMeY]LIK([AEEA-AEEA-γGlu-C14 diacid])GGPSSGAPPPS-NH2
modifications: N-terminus assumed
SMILES: CC[C@H](C)[C@H](NC(=O)[C@H](CC(C)C)NC(=O)[C@](C)(Cc1ccc(O)cc1)NC(=O)[C@@H](CCC(=O)O)NC(=O)[C@@H](NC(=O)[C@H](Cc1ccccc1)NC(=O)[C@H](CCC(=O)O)NC(=O)C(C)(C)NC(=O)[C@H](CCC(N)=O)NC(=O)[C@H](C)NC(=O)[C@H](CCCCNC(=O)COCCOCCNC(=O)COCCOCCNC(=O)CC[C@H](NC(=O)CCCCCCCCCCCCC(=O)O)C(=O)O)NC(=O)[C@H](CCCN)NC(=O)[C@H](CC(=O)O)NC(=O)[C@H](CC(C)C)NC(=O)[C@](C)(CC(C)C)NC(=O)[C@@H](NC(=O)C(C)(C)NC(=O)[C@@H](NC(=O)[C@H](CC(=O)O)NC(=O)[C@H](CO)NC(=O)[C@@H](NC(=O)[C@](C)(Cc1ccccc1F)NC(=O)[C@@H](NC(=O)CNC(=O)[C@H](CCC(=O)O)NC(=O)C(C)(C)NC(=O)[C@@H](N)Cc1ccc(O)cc1)[C@@H](C)O)[C@@H](C)O)C(C)C)[C@@H](C)CC)[C@@H](C)CC)C(=O)N[C@@H](CCCCNC(=O)COCCOCCNC(=O)COCCOCCNC(=O)CC[C@H](NC(=O)CCCCCCCCCCCCC(=O)O)C(=O)O)C(=O)NCC(=O)NCC(=O)N1CCC[C@H]1C(=O)N[C@@H](CO)C(=O)N[C@@H](CO)C(=O)NCC(=O)N[C@@H](C)C(=O)N1CCC[C@H]1C(=O)N1CCC[C@H]1C(=O)N1CCC[C@H]1C(=O)N[C@@H](CO)C(N)=O
B6: Example 326 (peptide)
peptide: Y[Aib]EGT[αMePhe(2-F)]TSDV[Aib]I[αMeL]LD[Orn]K([AEEA-AEEA-γGlu-Decanoyl(10-(4-HOOC-PhO))])AQ[Aib]EFI[dE][αMeY]LIK([AEEA-AEEA-γGlu-Decanoyl(10-(4-HOOC-PhO))])GGPSSGAPPPS-NH2
B7: Example 350 (peptide)
peptide: Y[Aib]EGT[αMePhe(2-F)]TSDV[Aib]I[αMeL]LD[Orn]K([AEEA-AEEA-γGlu-C14 diacid])AQ[Aib][Orn]FI[dE][αMeY]LIK([AEEA-AEEA-γGlu-C14 diacid])GGPSSGAPPPS-NH2
B8: Example 319 (peptide)
peptide: YXEGTXTSDVXIXLDXKAQXKFIXXLIEGGPSSGAPPPS
modifications: Y-Aib-EGT-αMeF(2F)-TSDV-Aib-I-αMeL-LD-Orn-K((2-[2-(2-Amino-ethoxy)-ethoxy]-acetyl)2-(γ-Glu)-(10-(4-carboxyphenoxy)decanoyl))AQ-Aib-K((2-[2-(2-Amino-ethoxy)-ethoxy]-acetyl)2-(γ-Glu)-(10-(4-carboxyphenoxy)decanoyl))FI-(D-Glu)-αMeY-LIEGGPSSGAPPPS-NH2
B9: Example 331 (peptide)
peptide: B8 peptide with V10X, K17I, E28K
modifications: Y-Aib-EGT-αMeF(2F)-TSD-4Pal-Aib-I-αMeL-LD-Orn-IAQ-Aib-K(2-[2-(2-Amino-ethoxy)-ethoxy]-acetyl)2-(γ-Glu)-(11-(4-carboxyphenoxy)undecanoyl)FI-(D-Glu)-αMeY-LIK((2-[2-(2-Amino-ethoxy)-ethoxy]-acetyl)2-(γ-Glu)-(11-(4-carboxyphenoxy)undecanoyl)GGPSSGAPPPS-NH2)
B10: Example 322 (peptide)
peptide: B8 peptide with V10X
modifications: Y-Aib-EGT-αMeF(2F)-TSD-4Pal-Aib-I-αMeL-LD-Orn-K((2-[2-(2-Amino-ethoxy)-ethoxy]-acetyl)2-(γ-Glu)-CO-(CH2)10-CH3)AQ-Aib-K((2-[2-(2-Amino-ethoxy)-ethoxy]-acetyl)2-(γ-Glu)-CO-(CH2)10-CH3)FI-(D-Glu)-αMeY-LIEGGPSSGAPPPS-NH2
B11: Example 340 (peptide)
peptide: B8 peptide with V10X, K17I, E28K
modifications: Y-Aib-EGT-αMeF(2F)-TSD-4Pal-Aib-I-αMeL-LD-Orn-IAQ-Aib-K((2-[2-(2-Amino-ethoxy)-ethoxy]-acetyl)-(γ-Glu)-CO-(CH2)12-CO2H)FI-(D-Glu)-αMeY-LIK((2-[2-(2-Amino-ethoxy)-ethoxy]-acetyl)-(γ-Glu)-CO-(CH2)12-CO2H)GGPSSGAPPPS-NH2
B12: Example 337 (peptide)
peptide: B8 peptide with V10X, K21E, E28K
modifications: Y-Aib-EGT-αMeF(2F)-TSD-4Pal-Aib-I-αMeL-LD-Orn-K((2-[2-(2-Amino-ethoxy)-ethoxy]-acetyl)-(γ-Glu)-CO-(CH2)12-CO2H)AQ-Aib-EFI-(D-Glu)-αMeY-LIK((2-[2-(2-Amino-ethoxy)-ethoxy]-acetyl)-(γ-Glu)-CO-(CH2)12-CO2H)GGPSSGAPPPS-NH2
B13: Example 336 (peptide)
peptide: B8 peptide with V10X
modifications: Y-Aib-EGT-αMeF(2F)-TSD-4Pal-Aib-I-αMeL-LD-Orn-K((2-[2-(2-Amino-ethoxy)-ethoxy]-acetyl)-(γ-Glu)-CO-(CH2)12-CO2H)AQ-Aib-K((2-[2-(2-Amino-ethoxy)-ethoxy]-acetyl)-(γ-Glu)-CO-(CH2)12-CO2H)FI-(D-Glu)-αMeY-LIEGGPSSGAPPPS-NH2

Columns and labels:
Experiment in all cases: cell-based or functional assay
[1] = target: T1, human GIP receptor (human)
hGLP-1R = hGLP-1R (Homo sapiens, UniProt P43220)
[2] = target: human glucagon receptor (human) (UniProt P47871)
human glucagon receptor = human glucagon receptor (human, UniProt P47871 26-477)
human GLP-1 receptor = human GLP-1 receptor (human, UniProt P43220 24-463)
human GIP receptor = target: T2, human GIP receptor

Binder | cAMP EC50 [1] [nM] | cAMP Emax [1] [%] | cAMP EC50 (hGLP-1R) [nM] | cAMP Emax (hGLP-1R) [%] | cAMP EC50 [2] [nM] | cAMP EC50 (1.0% HSA) (human glucagon receptor) [nM] | cAMP EC50 (1.0% HSA) (human GLP-1 receptor) [nM] | cAMP Emax (1.0% HSA) (human GLP-1 receptor) [%] | cAMP EC50 (1.0% HSA) (human GIP receptor) [nM] | cAMP Emax (1.0% HSA) (human GIP receptor) [%]
B1 | 0.0185 | 112 | 0.477 | 103 | > 9950 | > 9950 | 85.2 | 85 | 6.26 | 103
B2 | 0.00632 | 101 | 0.0647 | 97.6 | > 9950 | > 9950 | 4.38 | 99.4 | 0.321 | –
B3 | 0.0127 | 91.4 | 0.329 | 99.9 | > 9950 | > 9950 | 95.8 | 113 | 5.74 | 83.6
B4 | 0.015 | 109 | 0.353 | 104 | > 9950 | > 9950 | 74.7 | 88.3 | 5.44 | 100
B5 | 0.0485 | 104 | 0.225 | 97.8 | > 9950 | > 9950 | 23.5 | 98.4 | 3.96 | 94.7
B6 | 0.0338 | 102 | 0.186 | 94.4 | > 9950 | > 9950 | 26.1 | 96.1 | 4.62 | 88.7
B7 | 0.0288 | 101 | 0.202 | 95.9 | > 9950 | > 9950 | 6.4 | 91.4 | 5.82 | –
B8 | 0.0196 | 98.1 | 0.18 | 100 | > 9950 | > 9950 | 28.1 | 114 | 3.35 | –
B9 | 0.0113 | 101 | 0.436 | 99.6 | > 9950 | > 9950 | 223 | 114 | 8.31 | –
B10 | 0.00937 | 101 | 0.144 | 100 | > 9950 | > 9950 | 8.09 | 94.5 | 0.617 | –
B11 | 0.0206 | 95.2 | 0.409 | 105 | > 9950 | > 9950 | 122 | 112 | 9.91 | 87.9
B12 | 0.0151 | 103 | 0.444 | 107 | > 10100 | > 10100 | 53.6 | – | 2.65 | –
B13 | 0.0136 | 109 | 0.338 | 107 | > 10100 | > 10100 | 47 | 103 | 2.92 | –

— patent publication US20230265151A1, “GIP/GLP1 CO-AGONIST COMPOUNDS” (priority 2020, published 2023)
